Columns and labels:
[1] = target: truncated transmembrane tissue factor comprising residues 1-243, relipidated (human) (UniProt P13726); assay: cell-based or functional assay
[2] = target: relipidated human tissue factor (Innovin) (human, UniProt P13726 33-295); assay: cell-based or functional assay
[3] = target: tissue factor on human J82 cells (human, UniProt P13726 33-295); assay: cell-based or functional assay
[4] = target: T1, soluble tissue factor composed of the extracellular domain residues 1-219 of hTF (human, UniProt P13726 33-251); assay: SPR (BIAcore 2000), antibody immobilized, sTF in solution, 1:1 model
T1 construct: Expressed in E. coli; also called sTF
Protocol: The binding affinity of sTF for immobilized antibody was determined by surface plasmon resonance (SPR) measurements on a Pharmacia BIAcore 2000 instrument (Pharmacia Biosensor). Each antibody was coupled to the sensor chip surface at a level of 2000-3000 resonance units using amine coupling chemistry (Pharmacia Biosensor). In a typical experiment, 4 different antibodies were immobilized on each of the 4 flow cells of the sensor chip so that sensorgrams could be recorded simultaneously for all 4 antibodies. […] The kinetic constants were determined by non-linear regression analysis according to a 1:1 binding model using software supplied by the manufacturer. Dissociation constants were calculated from the kinetic constants. […] These solutions were incubated at ambient temperature for 30 minutes prior to injection onto the sensor chip. […] Affinities were determined by SPR measurements as described above for the wild-type protein.

Chain of truncated transmembrane tissue factor comprising residues 1-243, relipidated (human) (P13726 33-275): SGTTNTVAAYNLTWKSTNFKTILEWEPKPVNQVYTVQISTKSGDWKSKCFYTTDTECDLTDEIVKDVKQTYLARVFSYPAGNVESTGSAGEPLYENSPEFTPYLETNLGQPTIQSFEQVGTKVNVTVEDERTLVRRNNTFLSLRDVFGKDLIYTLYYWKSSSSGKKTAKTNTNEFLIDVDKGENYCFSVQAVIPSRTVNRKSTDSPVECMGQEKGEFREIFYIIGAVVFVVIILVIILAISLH

| concentration that inhibited the initial rate of FX activation in human plasma by 50% [1] | antibody concentration that prolonged the clotting time by 1.5-fold (PT assay) [2] | IC50 of FPA generation, human ex-vivo blood flow system [3] | Kd [4] | koff [4] | kon [4] | Molecule |
| --- | --- | --- | --- | --- | --- | --- |
| 150 µg/mL | – | – | – | – | – | HTF1 antibody |
| – | 27 µg/mL | 50 µg/mL | 1.7 nM | 0.0005 s⁻¹ | 300000 M⁻¹ s⁻¹ | murine anti-TF antibody 5G6 (antibody, V domains shown, Murine monoclonal antibody purified from ascites) VH: EVLLQQSGPELVKPGASVKIPCKASGYTFTEYNMDWVKQSHGKSLEWIGDINPNNGNTIYNQKFKGKATLTVDKSSTTAYLELRSLTSEDTAVYFCARDHDYYFDFWGQGTTLTVSS VL: DIQMTQTPASQSASLGESVTITCLASQTIDTWLAWYQQKPGKSPQLLIYAATSLADGVPSRFSGSGSGTKFSFKISSLQAEDFVSYYCQQPYSSPYTFGGGTKLELKR |
